Laboratory results: patent publication US20220025071A1

Assays:
[1] = biological target: Recombinant human Fc gamma receptor IIa, CD32a 131R (human) (UniProt P12318)
[2] = biological target: Recombinant human Fc gamma receptor IIIa, CD16a 158V (human) (UniProt P08637)
[3] = biological target: Recombinant human Fc gamma receptor I, CD64 (human) (UniProt P12314)
[4] = biological target: Recombinant human Fc gamma receptor IIb/c, CD32b/c (human) (UniProt P31994)
[5] = biological target: Recombinant human Fc gamma receptor IIa, CD32a 131H (human) (UniProt P12318)
[6] = biological target: Recombinant human Fc gamma receptor IIIb, CD16b (human) (UniProt O75015)
[7] = biological target: CD20 Lipoparticles (UniProt P11836)
Chain of CD20 Lipoparticles (P11836 whole entry): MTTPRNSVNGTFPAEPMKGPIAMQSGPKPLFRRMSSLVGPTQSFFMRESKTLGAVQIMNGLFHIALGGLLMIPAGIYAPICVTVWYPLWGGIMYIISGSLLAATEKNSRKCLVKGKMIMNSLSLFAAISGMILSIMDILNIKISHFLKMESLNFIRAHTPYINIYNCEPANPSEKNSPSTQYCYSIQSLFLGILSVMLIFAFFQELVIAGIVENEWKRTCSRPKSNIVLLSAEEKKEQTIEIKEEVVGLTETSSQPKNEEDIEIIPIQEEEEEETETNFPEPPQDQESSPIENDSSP

Chain of Recombinant human Fc gamma receptor IIIb, CD16b (human) (O75015 17-200 limits assumed): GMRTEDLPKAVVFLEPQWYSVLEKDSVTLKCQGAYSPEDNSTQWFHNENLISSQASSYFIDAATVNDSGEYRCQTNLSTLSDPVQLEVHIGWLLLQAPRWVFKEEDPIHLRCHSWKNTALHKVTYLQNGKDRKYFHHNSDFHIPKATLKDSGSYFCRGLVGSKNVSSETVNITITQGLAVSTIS
Chain of Recombinant human Fc gamma receptor IIa, CD32a 131R (human) (P12318 36-218 H167R): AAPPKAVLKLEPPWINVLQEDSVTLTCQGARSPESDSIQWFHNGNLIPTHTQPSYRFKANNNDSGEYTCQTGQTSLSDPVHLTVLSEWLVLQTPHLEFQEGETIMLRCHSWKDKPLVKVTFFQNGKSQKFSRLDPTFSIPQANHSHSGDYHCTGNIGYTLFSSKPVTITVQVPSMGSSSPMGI
Chain of Recombinant human Fc gamma receptor IIa, CD32a 131H (human) (P12318 36-218): as the sequence (P12318 36-218 H167R) above, with R132H counted along it
Chain of Recombinant human Fc gamma receptor IIIa, CD16a 158V (human) (P08637 17-208 F176V limits assumed): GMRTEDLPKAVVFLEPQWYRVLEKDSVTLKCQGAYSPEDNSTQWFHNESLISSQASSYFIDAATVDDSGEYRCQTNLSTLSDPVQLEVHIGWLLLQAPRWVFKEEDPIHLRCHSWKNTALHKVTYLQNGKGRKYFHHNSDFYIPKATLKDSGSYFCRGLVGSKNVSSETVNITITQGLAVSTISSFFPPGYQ
Chain of Recombinant human Fc gamma receptor IIb/c, CD32b/c (human) (P31994 46-217): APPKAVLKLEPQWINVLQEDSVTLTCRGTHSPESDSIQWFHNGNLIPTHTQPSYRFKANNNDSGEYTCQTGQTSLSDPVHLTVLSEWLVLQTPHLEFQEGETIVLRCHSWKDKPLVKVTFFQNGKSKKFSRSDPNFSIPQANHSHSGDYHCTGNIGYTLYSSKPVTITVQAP
Chain of Recombinant human Fc gamma receptor I, CD64 (human) (P12314 16-288 limits assumed): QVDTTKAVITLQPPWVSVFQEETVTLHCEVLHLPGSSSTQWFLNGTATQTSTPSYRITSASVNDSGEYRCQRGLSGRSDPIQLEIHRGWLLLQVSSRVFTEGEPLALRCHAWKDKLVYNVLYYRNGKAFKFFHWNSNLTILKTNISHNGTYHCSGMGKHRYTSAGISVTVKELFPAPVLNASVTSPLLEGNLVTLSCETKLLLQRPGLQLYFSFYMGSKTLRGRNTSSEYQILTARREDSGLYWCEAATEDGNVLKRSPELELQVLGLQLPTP

Rituxan (antibody)
Kd [1]: 1250 nM | Kd [2]: 715 nM | Kd [3]: 52.8 nM | Kd [4]: 1520 nM | Kd [5]: 892 nM | Kd [6]: 1530 nM | Kd [7]: < 0.001 nM
